Laboratory results as given in patent US20130236458A1 (AbbVie / Abbott, published 2013).
Substitutions are numbered along the chain they refer to.

What was measured:
[1] = target: Recombinant Human IL-13 (human, UniProt P35225 35-146, limits assumed); assay: cell-based or functional assay
[2] = target: T1, Recombinant Human IL-17 (human, UniProt Q16552 20-155, limits assumed); assay: cell-based or functional assay
T1 sequence (looked up): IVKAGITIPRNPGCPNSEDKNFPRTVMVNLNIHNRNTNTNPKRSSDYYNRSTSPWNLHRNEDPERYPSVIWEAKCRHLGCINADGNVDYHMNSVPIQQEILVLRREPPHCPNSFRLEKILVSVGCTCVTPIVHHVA

Sequence of Recombinant Human IL-13 (P35225 35-146 limits assumed): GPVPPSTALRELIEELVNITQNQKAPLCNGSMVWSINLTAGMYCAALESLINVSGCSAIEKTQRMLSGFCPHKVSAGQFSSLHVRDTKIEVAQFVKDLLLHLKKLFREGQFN

B1: DVD2184 (bispecific antibody)
VH: EVQLVQSGAEVKKPGASVKVSCKASGYTFTSYWMHWVRQAPGQGLEWIGNINPKGGSNIYNEKFQGRVTMTRDTSISTAYMELSRLRSDDTAVYYCARLDYFGDSFDLWGQGTTVTVSSASTKGPEVQLVQSGAEVKKPGSSVKVSCKASGYTFTDYEIHWVRQAPGQGLEWMGVNDPESGGTFYNQKFDGRVTLTADESTSTAYMELSSLRSEDTAVYYCTRYSKWDSFDGMDYWGQGTTVTVSS
VL: DIQMTQSPSSLSASVGDRVTITCRASQGIRNYLNWYQQKPGKAPKLLIYYASNLEVGVPSRFSGSGSGTDYTLTISSLQPEDFATYYCQQDNRFPYTFGGGTKVEIKRTVAAPDIQMTQSPSSLSASVGDRVTITCRASSGIISYIDWFQQKPGKAPKRLIYATFDLASGVPSRFSGSGSGTDYTLTISSLQPEDFATYYCRQVGSYPETFGQGTKLEIKR
N-Terminal VD IL13 Neutralization Assay IC50 [1]: 0.121 nM | C-Terminal VD IL17 Neutralization Assay IC50 [2]: 0.405 nM

B2: DVD2149 (bispecific antibody)
VH: EVQLVQSGAEVKKPGSSVKVSCKASGYTFTDYEIHWVRQAPGQGLEWMGVNDPESGGTFYNQKFDGRVTLTADESTSTAYMELSSLRSEDTAVYYCTRYSKWDSFDGMDYWGQGTTVTVSSASTKGPEVTLRESGPGLVKPTQTLTLTCTLYGFSLSTSDMGVDWIRQPPGKGLEWLAHIWWDDVKRYNPALKSRLTISKDTSKNQVVLKLTSVDPVDTATYYCARTVSSGYIYYAMDYWGQGTLVTVSS
VL: DIQMTQSPSSLSASVGDRVTITCRASSGIISYIDWFQQKPGKAPKRLIYATFDLASGVPSRFSGSGSGTDYTLTISSLQPEDFATYYCRQVGSYPETFGQGTKLEIKRTVAAPDIQMTQSPSSLSASVGDRVTISCRASQDIRNYLNWYQQKPGKAPKLLIFYTSKLHSGVPSRFSGSGSGTDYTLTISSLQPEDIATYYCQQGLTPPLTFGGGTKVEIKR
C-Terminal VD IL13 Neutralization Assay IC50 [1]: 1.43 nM | N-Terminal VD IL17 Neutralization Assay IC50 [2]: 0.0028 nM

B3: DVD2151 (bispecific antibody)
VH: B2 VH
VL: DIQMTQSPSSLSASVGDRVTITCRASSGIISYIDWFQQKPGKAPKRLIYATFDLASGVPSRFSGSGSGTDYTLTISSLQPEDFATYYCRQVGSYPETFGQGTKLEIKRTVAAPSVFIFPPDIQMTQSPSSLSASVGDRVTISCRASQDIRNYLNWYQQKPGKAPKLLIFYTSKLHSGVPSRFSGSGSGTDYTLTISSLQPEDIATYYCQQGLTPPLTFGGGTKVEIKR
C-Terminal VD IL13 Neutralization Assay IC50 [1]: 0.526 nM | N-Terminal VD IL17 Neutralization Assay IC50 [2]: 0.0179 nM

B4: DVD2180 (bispecific antibody)
VH: EVQLVQSGAEVKKPGASVKVSCKASGYTFTTYGVSWVRQAPGQGLEWMGEIYPGNYNTYYNEKFRGRVTMTTDTSTSTAYMELRSLRSDDTAVYYCARWRTSYFSDYGYFDYWGQGTTVTVSSASTKGPEVQLVQSGAEVKKPGESVKISCKASGGSFRSYGISWVRQAPGQGLEWMGGITHFFGITDYAQKFQGRVTITADESTTTAYMELSGLTSDDTAVYYCAREPNDFWNGYYDTHDFDSWGQGTTVTVSS
VL: DVVMTQSPLSLPVTLGQPASISCRSSQSLVHSHGNTYLHWYQQRPGQSPRLLIYTVSNRFSGVPDRFSGSGSGTDFTLKISRVEAEDVGVYYCSQSTHVPYTFGGGTKVEIKRTVAAPSVFIFPPEIVLTQSPDFQSVTPKEKVTITCRASQNIGSELHWYQQKPDQSPKLLIKYASHSISGVPSRFSGSGSGTDFTLTINGLEAEDAATYYCHQSDTLPHTFGQGTKVDIKR
N-Terminal VD IL13 Neutralization Assay IC50 [1]: 0.091 nM | C-Terminal VD IL17 Neutralization Assay IC50 [2]: 0.0567 nM

B5: DVD2170 (bispecific antibody)
VH: EVQLVQSGAEVKKPGASVKVSCKASGYTFTTYGVSWVRQAPGQGLEWMGEIYPGNYNTYYNEKFRGRVTMTTDTSTSTAYMELRSLRSDDTAVYYCARWRTSYFSDYGYFDYWGQGTTVTVSSASTKGPSVFPLAPEVQLVQSGAEVKKPGSSVKVSCKASGYTFTDYEIHWVRQAPGQGLEWMGVNDPESGGTFYNQKFDGRVTLTADESTSTAYMELSSLRSEDTAVYYCTRYSKWDSFDGMDYWGQGTTVTVSS
VL: DVVMTQSPLSLPVTLGQPASISCRSSQSLVHSHGNTYLHWYQQRPGQSPRLLIYTVSNRFSGVPDRFSGSGSGTDFTLKISRVEAEDVGVYYCSQSTHVPYTFGGGTKVEIKRTVAAPDIQMTQSPSSLSASVGDRVTITCRASSGIISYIDWFQQKPGKAPKRLIYATFDLASGVPSRFSGSGSGTDYTLTISSLQPEDFATYYCRQVGSYPETFGQGTKLEIKR
N-Terminal VD IL13 Neutralization Assay IC50 [1]: 0.106 nM | C-Terminal VD IL17 Neutralization Assay IC50 [2]: 0.0053 nM

B6: DVD2148 (bispecific antibody)
VH: EVTLRESGPGLVKPTQTLTLTCTLYGFSLSTSDMGVDWIRQPPGKGLEWLAHIWWDDVKRYNPALKSRLTISKDTSKNQVVLKLTSVDPVDTATYYCARTVSSGYIYYAMDYWGQGTLVTVSSASTKGPEVQLVQSGAEVKKPGSSVKVSCKASGYTFTDYEIHWVRQAPGQGLEWMGVNDPESGGTFYNQKFDGRVTLTADESTSTAYMELSSLRSEDTAVYYCTRYSKWDSFDGMDYWGQGTTVTVSS
VL: DIQMTQSPSSLSASVGDRVTISCRASQDIRNYLNWYQQKPGKAPKLLIFYTSKLHSGVPSRFSGSGSGTDYTLTISSLQPEDIATYYCQQGLTPPLTFGGGTKVEIKRTVAAPDIQMTQSPSSLSASVGDRVTITCRASSGIISYIDWFQQKPGKAPKRLIYATFDLASGVPSRFSGSGSGTDYTLTISSLQPEDFATYYCRQVGSYPETFGQGTKLEIKR
N-Terminal VD IL13 Neutralization Assay IC50 [1]: 0.054 nM | C-Terminal VD IL17 Neutralization Assay IC50 [2]: 0.0116 nM

B7: DVD2150 (bispecific antibody)
VH: B6 VH
VL: DIQMTQSPSSLSASVGDRVTISCRASQDIRNYLNWYQQKPGKAPKLLIFYTSKLHSGVPSRFSGSGSGTDYTLTISSLQPEDIATYYCQQGLTPPLTFGGGTKVEIKRTVAAPSVFIFPPDIQMTQSPSSLSASVGDRVTITCRASSGIISYIDWFQQKPGKAPKRLIYATFDLASGVPSRFSGSGSGTDYTLTISSLQPEDFATYYCRQVGSYPETFGQGTKLEIKR
N-Terminal VD IL13 Neutralization Assay IC50 [1]: 0.099 nM | C-Terminal VD IL17 Neutralization Assay IC50 [2]: 0.004 nM

B8: DVD2152 (bispecific antibody)
VH: EVTLRESGPGLVKPTQTLTLTCTLYGFSLSTSDMGVDWIRQPPGKGLEWLAHIWWDDVKRYNPALKSRLTISKDTSKNQVVLKLTSVDPVDTATYYCARTVSSGYIYYAMDYWGQGTLVTVSSASTKGPSVFPLAPEVQLVQSGAEVKKPGSSVKVSCKASGYTFTDYEIHWVRQAPGQGLEWMGVNDPESGGTFYNQKFDGRVTLTADESTSTAYMELSSLRSEDTAVYYCTRYSKWDSFDGMDYWGQGTTVTVSS
VL: B6 VL
N-Terminal VD IL13 Neutralization Assay IC50 [1]: 0.112 nM | C-Terminal VD IL17 Neutralization Assay IC50 [2]: 0.0069 nM

B9: DVD2176 (bispecific antibody)
VH: EVQLVQSGAEVKKPGASVKVSCKASGYTFTTYGVSWVRQAPGQGLEWMGEIYPGNYNTYYNEKFRGRVTMTTDTSTSTAYMELRSLRSDDTAVYYCARWRTSYFSDYGYFDYWGQGTTVTVSSASTKGPSVFPLAPEVQLVQSGAEVKKPGSSVKVSCKASGGSFGGYGIGWVRQAPGQGLEWMGGITPFFGFADYAQKFQGRVTITADESTTTAYMELSGLTSDDTAVYYCARDPNEFWNGYYSTHDFDSWGQGTTVTVSS
VL: DVVMTQSPLSLPVTLGQPASISCRSSQSLVHSHGNTYLHWYQQRPGQSPRLLIYTVSNRFSGVPDRFSGSGSGTDFTLKISRVEAEDVGVYYCSQSTHVPYTFGGGTKVEIKRTVAAPEIVLTQSPDFQSVTPKEKVTITCRASQDIGSELHWYQQKPDQPPKLLIKYASHSTSGVPSRFSGSGSGTDFTLTINGLEAEDAGTYYCHQTDSLPYTFGPGTKVDIKR
N-Terminal VD IL13 Neutralization Assay IC50 [1]: 0.106 nM | C-Terminal VD IL17 Neutralization Assay IC50 [2]: 0.116 nM

B10: DVD2182 (bispecific antibody)
VH: EVQLVQSGAEVKKPGASVKVSCKASGYTFTTYGVSWVRQAPGQGLEWMGEIYPGNYNTYYNEKFRGRVTMTTDTSTSTAYMELRSLRSDDTAVYYCARWRTSYFSDYGYFDYWGQGTTVTVSSASTKGPSVFPLAPEVQLVQSGAEVKKPGESVKISCKASGGSFRSYGISWVRQAPGQGLEWMGGITHFFGITDYAQKFQGRVTITADESTTTAYMELSGLTSDDTAVYYCAREPNDFWNGYYDTHDFDSWGQGTTVTVSS
VL: B9 VL with D146N, P161S, T173I, G202A, T209S, S211T, Y214H, P218Q
N-Terminal VD IL13 Neutralization Assay IC50 [1]: 0.077 nM | C-Terminal VD IL17 Neutralization Assay IC50 [2]: 0.266 nM

B11: DVD2178 (bispecific antibody)
VH: B4 VH
VL: B9 VL with D146N, P161S, T173I, G202A, T209S, S211T, Y214H, P218Q
N-Terminal VD IL13 Neutralization Assay IC50 [1]: 0.088 nM | C-Terminal VD IL17 Neutralization Assay IC50 [2]: 0.691 nM
